koff and Kd data for two molecules are collected here from patent US20120219564 (published 2012).

For orientation: koff means the rate constant with which the complex falls apart. Broadly, the Kd is a measure of binding affinity in units of concentration. Low values mean higher affinity, high ones lower affinity.

Assay [1] concerns the target T1, human TNFα (human, UniProt P01375). Description: SPR. A general note: In SPR one partner is held on a chip, and binding of the other changes the refractive index at the surface.
In assay [2] the target is T1, human TNFα. In words: other, equilibrium analysis.
Assay [3] addresses T1, human TNFα. In words: SPR. The source holds these as a separate data set.

T1 sequence (P01375 77-233): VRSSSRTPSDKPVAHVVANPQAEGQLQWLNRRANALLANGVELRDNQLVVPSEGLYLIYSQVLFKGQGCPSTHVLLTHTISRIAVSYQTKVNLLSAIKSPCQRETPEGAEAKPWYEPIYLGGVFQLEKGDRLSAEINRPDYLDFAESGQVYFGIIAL

B1: 2SD4 scFv (antibody, V domains shown)
VH: QVQLVESGGGLVQPGRSLRLSCAASGFTFDDYAMHWVRQAPGKGLDWVSAITWNSGHIDYADSVEGRFAVSRDNAKNALYLQMNSLRPEDTAVYYCTKASYLSTSSSLDNWGQGTLVTVSS
VL: DIQMTQSPSSLSASIGDRVTITCRASQGIRNYLAWYQQKPGKAPKLLIYAASTLQSGVPSRFSGSGSGTDFTLTISSLQPEDVATYYCQKYNSAPYAFGQGTKVEIK
In the case of B1, the koff with human TNFα [1] was 0.0137 s⁻¹.

B2: 2SD4 IgG4 (antibody, V domains shown)
VH: QVQLVESGGGLVQPGRSLRLSCAASGFTFDDYAMHWVRQAPGKGLDWVSAITWNSGHIDYADSVEGRFAVSRDNAKNALYLQMNSLRPEDTAVYYCTKASYLSTSSSLDNWGQGTLVTVSS
VL: DIQMTQSPSSLSASIGDRVTITCRASQGIRNYLAWYQQKPGKAPKLLIYAASTLQSGVPSRFSGSGSGTDFTLTISSLQPEDVATYYCQKYNSAPYAFGQGTKVEIK
As to B2, the Kd in the assay with human TNFα [2] worked out at 0.48 nM; with human TNFα [3], 20 nM.
